Here are results for 2 molecules from patent publication US20240383982A1 (Genmab, published 2024).

In experiment [1] the target is T1, rabbit (Oryctolagus cuniculus) B7H4, full length, on HEK-293F cells (rabbit, UniProt Q7Z7D3 25-282 (human entry)).
T1 construct: Uniprot G1TQE8; also called rabbit B7H4
T1 chain: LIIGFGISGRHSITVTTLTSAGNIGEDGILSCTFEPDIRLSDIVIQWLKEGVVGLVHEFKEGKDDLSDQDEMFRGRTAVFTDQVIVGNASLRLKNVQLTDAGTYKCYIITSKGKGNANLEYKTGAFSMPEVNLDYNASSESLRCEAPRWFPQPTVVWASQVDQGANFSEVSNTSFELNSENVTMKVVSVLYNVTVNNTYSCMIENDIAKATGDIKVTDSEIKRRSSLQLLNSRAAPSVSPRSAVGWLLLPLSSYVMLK
As to the kind of experiment: flow cytometry, transiently transfected HEK-293F cells.

Experiment [2] deals with T2, pig (Sus scrofa) B7H4, full length, on HEK-293F cells (pig, UniProt Q7Z7D3 26-282 (human entry)).
T2 construct: Uniprot F1SAY4; also called pig B7H4
T2 chain: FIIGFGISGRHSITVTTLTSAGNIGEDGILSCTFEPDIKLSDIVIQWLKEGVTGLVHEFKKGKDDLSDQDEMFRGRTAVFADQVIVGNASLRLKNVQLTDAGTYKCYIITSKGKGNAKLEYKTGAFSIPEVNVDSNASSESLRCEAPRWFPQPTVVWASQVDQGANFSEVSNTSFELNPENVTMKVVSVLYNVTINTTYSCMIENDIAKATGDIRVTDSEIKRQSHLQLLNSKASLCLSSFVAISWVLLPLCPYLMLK
As to the kind of experiment: flow cytometry, HEK-293F cells transfected with pig B7H4 [panel Pig B7H4]. Here is the method: (§1) Cells (3×10⁴ cells/well) were incubated in polystyrene 96-well round-bottom plates (Greiner bio-one, cat. no. 650180) with serial dilutions of antibodies (ranging from 0.000458 to 30 μg/mL in 4-fold dilution steps) in 100 μL PBS/0.1% BSA/0.02% azide (staining buffer) at 4° C. for 30 min. Experiments were performed in technical duplicate. After washing twice in staining buffer, cells were incubated in 50 μL secondary antibody at 4° C. for 30 min. As a secondary antibody, R-Phycoerythrin (PE)-conjugated goat-anti-human IgG F(ab′)₂ (1:500 in FACS buffer; Jackson ImmunoResearch Laboratories, Inc., West Grove, PA, cat. no. 109-116-098), was used. Cells were washed twice in staining buffer, re-suspended in 30 μL FACS buffer containing Topro-3 (1:10,000 dilution) and analyzed on an iQue Screener (Intellicyt Corporation, USA). Binding curves were analyzed using non-linear regression (sigmoidal dose-response with variable slope) using GraphPad Prism V7.02 software (GraphPad Software, San Diego, CA, USA).
A general note: Flow cytometry measures light scatter and fluorescence of single cells or particles in a stream.

Experiment [3] addresses T3, rat (Rattus norvegicus) B7H4, full length, on HEK-293F cells (rat, UniProt Q501W4 25-257).
T3 construct: Uniprot Q501W4; also called rat B7H4
T3 sequence: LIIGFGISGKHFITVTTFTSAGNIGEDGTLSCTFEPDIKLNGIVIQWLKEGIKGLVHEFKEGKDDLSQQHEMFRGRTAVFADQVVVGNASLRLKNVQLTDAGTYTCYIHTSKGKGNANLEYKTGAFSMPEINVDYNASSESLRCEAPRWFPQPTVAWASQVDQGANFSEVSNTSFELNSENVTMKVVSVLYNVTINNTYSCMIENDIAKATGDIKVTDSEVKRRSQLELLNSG
As to the kind of experiment: flow cytometry, HEK-293F cells transfected with rat B7H4 [panel Rat B7H4]. As to the method:
as §1

For experiment [4], the target named is T4, mouse B7H4 ECD-His (R&D Systems, cat. no. 2154-B7-050) (mouse, UniProt Q7TSP5 29-256).
T4 construct: Bought ECD-His protein (26.6 kDa); also called mouse B7H4 extracellular domain
T4 sequence: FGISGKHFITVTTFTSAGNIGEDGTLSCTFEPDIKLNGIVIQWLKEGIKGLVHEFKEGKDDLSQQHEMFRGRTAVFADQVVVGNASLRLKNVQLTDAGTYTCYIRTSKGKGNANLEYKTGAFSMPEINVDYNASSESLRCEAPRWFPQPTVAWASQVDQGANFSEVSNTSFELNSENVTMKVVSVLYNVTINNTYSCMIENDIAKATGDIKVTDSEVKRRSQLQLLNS
Nature of the experiment: BLI (Octet HTX); antibody on anti-human IgG Fc capture sensor, mouse B7H4 ECD-His in solution; 1st experiment. Here is the method: (§2) Target binding affinity of B7H4 antibodies was determined by label-free biolayer interferometry (BLI) on an Octet HTX instrument (FortéBio). Experiments were carried out while shaking at 1,000 RPM at 30° C. […] Anti-Human IgG Fc Capture (AHC) biosensors (FortéBio, cat. no. 18-5060) were pre-conditioned by exposure to 10 mM glycine (Sigma-Aldrich, cat. no. 15527) buffer pH 1.7 for 5 s, followed by neutralization in Sample Diluent (FortéBio, cat. no. 18-1048) for 5 s; both steps were repeated 2 times. Next, AHC sensors were loaded with antibody (1 μg/mL in Sample diluent) for 600 s. […] The theoretical molecular mass of human B7H4 and mouse B7H4 (as ECD-His tagged molecules) based on their amino acid sequences (26.8 kDa and 26.6 kDa respectively) were used for calculations. For each antibody a reference sensor was used, which was incubated with Sample Diluent instead of antigen. AHC sensors were regenerated by exposure to 10 mM glycine buffer pH 1.7 for 5 s, followed by neutralization in Sample Diluent for 5 s; both steps were repeated twice. Subsequently sensors were loaded again with antibody for the next cycle of kinetics measurements.
(§3) Data were acquired using Data Acquisition Software v9.0.0.49d (FortéBio) and analyzed with Data Analysis Software v9.0.0.12 (FortéBio). Data traces were corrected per antibody by subtraction of the reference sensor. The Y-axis was aligned to the last 10 s of the baseline, Interstep Correction alignment to dissociation and Savitzky-Golay filtering were applied. Data traces with a response<0.05 nm were excluded from analysis. The data was fitted with the 1:1 Global Full fit model using a window of interest for the association and dissociation times set at 300 s and 200 s respectively.
(In general: Biolayer interferometry detects binding as a change in optical thickness at a sensor tip.)

Experiment [5] addresses T4, mouse B7H4 ECD-His (R&D Systems, cat. …). As to the kind of experiment: BLI (Octet HTX); antibody on anti-human IgG Fc capture sensor, mouse B7H4 ECD-His in solution; 2nd experiment. As to the method:
as §2, §3

Experiment [6] addresses T5, B7H3.
T5 construct: also called human B7H3
T5 full-length protein on cells: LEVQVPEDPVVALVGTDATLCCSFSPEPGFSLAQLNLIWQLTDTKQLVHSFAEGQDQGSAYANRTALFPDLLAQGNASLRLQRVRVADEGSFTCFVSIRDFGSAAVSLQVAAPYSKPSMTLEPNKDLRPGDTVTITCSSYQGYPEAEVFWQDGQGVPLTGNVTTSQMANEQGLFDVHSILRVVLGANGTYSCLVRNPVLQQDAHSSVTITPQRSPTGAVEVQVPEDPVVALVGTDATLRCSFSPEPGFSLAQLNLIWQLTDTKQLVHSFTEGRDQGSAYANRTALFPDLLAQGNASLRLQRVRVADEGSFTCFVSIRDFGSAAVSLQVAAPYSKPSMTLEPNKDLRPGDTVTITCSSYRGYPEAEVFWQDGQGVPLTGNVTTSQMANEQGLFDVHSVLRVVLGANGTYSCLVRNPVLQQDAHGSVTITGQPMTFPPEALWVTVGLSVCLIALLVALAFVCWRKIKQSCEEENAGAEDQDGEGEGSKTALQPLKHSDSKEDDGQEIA
As to the kind of experiment: flow cytometry, transiently transfected HEK cells, MFI as % of IgG1-B7H3-BRCA84D. Here is the method:
(§4) Expression constructs were prepared encoding human B7H4, human B7H3 (Uniprot accession no. Q5ZPR3-1; SEQ ID NO: 9), or a chimeric molecule containing the IgV domain of B7H3 and the IgC domain of B7H4 (B7H3-IgV/B7H4-IgC; SEQ ID NO: 11), or a chimeric molecule containing the IgV domain of B7H4 and the IgC domain of B7H3 (B7H4-IgV/B7H3-IgC; SEQ ID NO: 10). HEK cells were transiently transfected to express these constructs.
(§5) Cells (3×10⁴ cell/well) were incubated in polystyrene 96-well round-bottom plates (Greiner bio-one, cat. no. 650101) with serial dilutions of antibodies (range 0.0046 to 10 μg/mL in 3-fold dilution steps) in 50 μL PBS/0.1% BSA/0.02% azide (FACS buffer) at 4° C. for 30 min. After washing twice in FACS buffer, cells were incubated with secondary antibody at 4° C. for 30 min. As a secondary antibody, R-Phycoerythrin (PE)-conjugated goat-anti-human IgG F(ab′)₂ (1:500 in staining buffer; Jackson ImmunoResearch Laboratories, Inc., West Grove, PA, cat. no. 109-116-098) was used. Next, cells were washed twice in FACS buffer, re-suspended in 20 μL FACS buffer and analyzed on an iQue Screener (Intellicyt Corporation, USA).

In experiment [7] the target is T6, B7H3-IgV/B7H4-IgC.
T6 construct: also called chimeric molecule with the IgV domain of B7H3 and the IgC domain of B7H4
T6 full-length chimeric protein on cells: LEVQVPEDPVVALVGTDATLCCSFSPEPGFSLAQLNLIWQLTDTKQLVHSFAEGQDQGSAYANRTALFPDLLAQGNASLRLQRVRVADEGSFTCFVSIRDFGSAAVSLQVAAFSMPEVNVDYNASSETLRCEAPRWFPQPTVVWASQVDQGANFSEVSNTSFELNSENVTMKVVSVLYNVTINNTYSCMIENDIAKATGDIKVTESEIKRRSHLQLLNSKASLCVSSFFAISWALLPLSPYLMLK
As to the kind of experiment: flow cytometry, transiently transfected HEK cells, antibody at 10 µg/mL, MFI as % of the control antibody of the panel. As to the method: as §4, §5

B1: IgG1-B7H4-C2-FEAR (antibody, V domains shown)
VH: EVQLVQSGAEVKKPGASVKVSCKASGYTFTSYWIGWVRQAPGQGLEWIGDIYPGGGYTNYNEKFKGRVTITRDTSTSTAYLELSSLRSEDTAVYYCARLDGSSYRGAMDSWGQGTLVTVSS
VL: DIQMTQSPSSLSASVGDRVTITCKASQGFNKYVAWYQQKPGKAPKLLIYYTSTLQPGVPSRFSGSGSGRDYTLTISSLQPEDFATYYCLQYGNLLYAFGQGTKVEIKR
notes: Full length IgG1 FEAR, kappa; variable domains from WO2014159835
One may read the Kd as the free concentration of one partner at which half of the binding sites on the other are occupied at equilibrium, for simple one-to-one binding. Read a low Kd as higher affinity. For orientation: koff means the first-order rate constant of dissociation. Usually kon stands for a measure of how fast the partners come together. In the case of B1, the binding result in experiment [1], in experiment [2] and in experiment [3] was “binds” each time. Further, the Kd in experiment [4] worked out at 24 nM; in experiment [5] it was 2.1 nM. Further, the koff in experiment [4] was determined as 0.00077 s⁻¹; in experiment [5], 0.00013 s⁻¹. The kon in experiment [4] turned out to be 33000 M⁻¹ s⁻¹; in experiment [5], 63000 M⁻¹ s⁻¹.

B2: bsIgG1-huCD3-FEALxB7H4-C3-FEAR (bispecific antibody)
heavy 1: not shown
light 1: not shown
heavy 2: EVQLVQSGAEVKKPGASVKVSCKASGYTFTNFWIHWVRQAPGQGLEWIGEIDPSDSYTNYNQKFKGRVTITRDTSTSTAYLELSSLRSEDTAVYYCAREITTVDYWGQGTLVTVSSASTKGPSVFPLAPSSKSTSGGTAALGCLVKDYFPEPVTVSWNSGALTSGVHTFPAVLQSSGLYSLSSVVTVPSSSLGTQTYICNVNHKPSNTKVDKRVEPKSCDKTHTCPPCPAPEFEGGPSVFLFPPKPKDTLMISRTPEVTCVVVAVSHEDPEVKFNWYVDGVEVHNAKTKPREEQYNSTYRVVSVLTVLHQDWLNGKEYKCKVSNKALPAPIEKTISKAKGQPREPQVYTLPPSREEMTKNQVSLTCLVKGFYPSDIAVEWESNGQPENNYKTTPPVLDSDGSFFLYSRLTVDKSRWQQGNVFSCSVMHEALHNHYTQKSLSLSPGK
light 2: DIQMTQSPSSLSASVGDRVTITCSATSSISYMHWYQQKPGKAPKGWIYDTSKLAHGVPSRFSGSGSGTDFTLTISSLQPEDFATYYCHQRRSYPFTFGQGTKVEIKRTVAAPSVFIFPPSDEQLKSGTASVVCLLNNFYPREAKVQWKVDNALQSGNSQESVTEQDSKDSTYSLSSTLTLSKADYEKHKVYACEVTHQGLSSPVTKSFNRGEC
notes: also called bslgG1-huCD3-FEALxB7H4-C3-FEAR
Take B2: the binding result in experiment [6] is “no binding (tested: 10 µg/mL)”; in experiment [7] it was “binds”.
